According to patent publication US20160038588A1, “Myostatin Antagonism in Human Subjects” (AMGEN INC., priority 2013, published 2016):
Like-named read-outs stand apart in the source and are kept apart here.

Key:
[1] = test system: men with prostate cancer receiving ADT; assay: Clinical study: safety (adverse events, laboratory variables, ECG, vital signs); assay type: in vivo, human; conditions: for DEATHS ON STUDY: during study or within 30 days of last dose
Procedure: Adverse events and concomitant medications were recorded at all study visits.
For safety analyses, all subjects who received AMG 745 or placebo were included and placebo-treated subjects from all cohorts were combined to form a composite placebo group.

[2] = human, in vivo, sc
Procedure: This was a multicenter, randomized, double-blind, placebo-controlled, ascending-multiple-dose study in men with prostate cancer receiving ADT. The trial was designed to evaluate the safety, tolerability, PK, and pharmacodynamics of AMG 745.
Subcutaneous doses of 0.3 mg/kg, 1.0 mg/kg, and 3.0 mg/kg, were each administered once weekly for 4 weeks, and were evaluated in sequential cohorts. Eight subjects, randomized in a 3:1 allocation ratio to AMG 745 or placebo, were enrolled in the 0.3 mg/kg dose cohort and in the 1.0 mg/kg dose cohort. To evaluate safety, tolerability, PK and the effect of 4 weekly doses on lean body mass, a total of thirty-eight subjects were enrolled in the 3.0 mg/kg dose cohort, randomized in a 1:1 allocation ratio to AMG 745 or placebo.
The following procedures were performed pre-study and periodically during the study for all cohorts: physical examination, vital signs, electrocardiogram, hematology, chemistry, urinalysis, anti-AMG 745 antibody screen, and blood sample draws for PK. For the 3 mg/kg cohort DXA and lower extremity CT scans were conducted predose and on study day 29 (end of study) and at the one month follow-up visit. All DXA scans were performed on a Hologic or GE Lunar scanner. The same scanner was to be used for all visits for an individual subject. All DXA scans were sent to a central reading facility for review and analysis.
The pharmacokinetic analyses included all treated subjects for whom the pharmacokinetic parameters could be estimated. Pharmacokinetic parameters were estimated using noncompartmental methods. Summary statistics by dose cohort were generated for each pharmacokinetic parameter. Graphs of serum AMG 745 concentration-time profiles for individual subjects and the means for each dose were prepared.

[3] = 0.3 mg/kg SC 4-Week Dosing (N = 6)
[4] = 1.0 mg/kg SC 4-Week Dosing (N = 6)
[5] = 3.0 mg/kg SC 4-Week Dosing (N = 19)

AMG 745: anti-myostatin peptibody: human IgG1 Fc fused at C-terminus via GGGGGAQ linker to peptide SEQ ID NO:311; chain SEQ ID NO:635
ALL ADVERSE EVENTS [1, 3]: 5 (83) n (%)
ALL TREATMENT-RELATED ADVERSE EVENTS [1, 3]: 1 (17) n (%)
INVESTIGATIONAL PRODUCT DISCONTINUATIONS DUE TO ADVERSE EVENTS [1, 3]: 0 (0) n (%)
STUDY DISCONTINUATIONS DUE TO ADVERSE EVENTS [1, 3]: 0 (0) n (%)
Serious adverse events (all adverse events) [1, 3]: 0 (0) n (%)
Serious adverse events (treatment-related) [1, 3]: 0 (0) n (%)
DEATHS ON STUDY [1, 3]: 0 (0) n (%)
ALL ADVERSE EVENTS [1, 4]: 5 (83) n (%)
ALL TREATMENT-RELATED ADVERSE EVENTS [1, 4]: 3 (50) n (%)
INVESTIGATIONAL PRODUCT DISCONTINUATIONS DUE TO ADVERSE EVENTS [1, 4]: 0 (0) n (%)
STUDY DISCONTINUATIONS DUE TO ADVERSE EVENTS [1, 4]: 0 (0) n (%)
Serious adverse events (all adverse events) [1, 4]: 0 (0) n (%)
Serious adverse events (treatment-related) [1, 4]: 0 (0) n (%)
DEATHS ON STUDY [1, 4]: 0 (0) n (%)
ALL ADVERSE EVENTS [1, 5]: 15 (79) n (%)
ALL TREATMENT-RELATED ADVERSE EVENTS [1, 5]: 3 (16) n (%)
INVESTIGATIONAL PRODUCT DISCONTINUATIONS DUE TO ADVERSE EVENTS [1, 5]: 1 (5) n (%)
STUDY DISCONTINUATIONS DUE TO ADVERSE EVENTS [1, 5]: 0 (0) n (%)
Serious adverse events (all adverse events) [1, 5]: 1 (5) n (%)
Serious adverse events (treatment-related) [1, 5]: 0 (0) n (%)
DEATHS ON STUDY [1, 5]: 0 (0) n (%)
relationship between subject incidence of adverse events and dose ([1]; 0.3 to 3 mg/kg): No relationship was apparent
highest alanine aminotransferase [ALT] ([1]; 1 subject, 0.3 mg/kg): 1.7 times the upper limit of normal (ULN)
highest alkaline phosphatase [AP] ([1]; 1 subject, 0.3 mg/kg): 1.5 times the upper limit of normal (ULN)
highest aspartate aminotransferase [AST] ([1]; 1 subject, 0.3 mg/kg): 2.2 times the upper limit of normal (ULN)
injection site bruising, subject incidence ([1]; 2/31): 6%
subjects discontinued because of adverse events (erythema of the abdomen) ([1]; 3-mg/kg dose cohort, after the second dose): 1 subject
serious adverse events (syncope), number ([1]; 3-mg/kg dose cohort, considered unrelated to treatment): 1
contusion, subject incidence ([1]; 3/31): 10%
diarrhea, subject incidence ([1]; 4/31): 13%
fatigue, subject incidence ([1]; 4/31): 13%
tolerability ([1]; 4 weekly SC doses, as high as 3.0 mg/kg): generally well tolerated
subjects with treatment-related adverse events ([1]; AMG 745 at any dose, 7 of 31 subjects): 23%
subjects with adverse events ([1]; AMG 745 at any dose, 25 of 31 subjects): 81%
ALL ADVERSE EVENTS ([1]; All AMG 745 Subjects (N = 31)): 25 (81) n (%)
ALL TREATMENT-RELATED ADVERSE EVENTS ([1]; All AMG 745 Subjects (N = 31)): 7 (23) n (%)
INVESTIGATIONAL PRODUCT DISCONTINUATIONS DUE TO ADVERSE EVENTS ([1]; All AMG 745 Subjects (N = 31)): 1 (3) n (%)
STUDY DISCONTINUATIONS DUE TO ADVERSE EVENTS ([1]; All AMG 745 Subjects (N = 31)): 0 (0) n (%)
Serious adverse events (all adverse events) ([1]; All AMG 745 Subjects (N = 31)): 1 (3) n (%)
Serious adverse events (treatment-related) ([1]; All AMG 745 Subjects (N = 31)): 0 (0) n (%)
DEATHS ON STUDY ([1]; All AMG 745 Subjects (N = 31)): 0 (0) n (%)
fasting plasma glucose, insulin, cholesterol, LDL, HDL, triglycerides vs placebo ([1]; human, in vivo): no apparent differences between treatment groups
AR (accumulation ratio, AUC Week 4/AUC Week 1) ([2]; 0.3 mg/kg): 2.55
AR (accumulation ratio, AUC Week 4/AUC Week 1) ([2]; 3 mg/kg): 1.78
